± gives the uncertainty stated by the source.
B1: POU domain, class 6, transcription factor 2, residues 609 to 663; numbered along this chain, P78424 (parent)
chain: KRRTSFTPQALEILNAHFEKNTHPSGQEMTEIAEKLNYDREVVRVWFCNKRQALK

Variants of: B1
Assay: abundance fitness (aPCA) (normalised: wild type 0, dead -1); higher = more abundant; growth selection in yeast, the domain comes from the species named
Settings: Homo sapiens

Variant | abundance fitness
E12M | -0.222 ± 0.19
E12R | -0.107 ± 0.089
E12A | -0.401 ± 0.14
E12D | -0.002 ± 0.3
E12L | -0.403 ± 0.11
E12V | -0.331 ± 0.15
S5N | -0.075 ± 0.12
S5P | -0.032 ± 0.12
S5Q | 0.221 ± 0.14
S5L | -0.06 ± 0.071
S5E | 0.083 ± 0.079
S5Y | -0.147 ± 0.1
N21P | -0.987 ± 0.33
N21D | -0.153 ± 0.092
N21K | -0.303 ± 0.13
N21Q | -0.044 ± 0.15
N21W | -0.67 ± 0.09
N21C | -0.008 ± 0.1
L11Q | -0.435 ± 0.16
L11R | -0.222 ± 0.074
L11G | -0.477 ± 0.075
L11H | -0.482 ± 0.24
L11M | -0.092 ± 0.14
L11A | -0.279 ± 0.1

Variant | abundance fitness
L11F | -0.498 ± 0.24
E41P | -0.879 ± 0.14
E41L | -0.617 ± 0.07
E41V | -0.496 ± 0.071
E41H | -0.29 ± 0.2
T4Y | -0.15 ± 0.18
T4H | -0.028 ± 0.26
T4F | -0.333 ± 0.14
T4M | -0.148 ± 0.16
T4I | -0.364 ± 0.22
T4V | -0.106 ± 0.079
T4G | -0.089 ± 0.081
T4Q | -0.203 ± 0.13
T4C | -0.058 ± 0.17
T4R | -0.204 ± 0.071
L54Y | -0.417 ± 0.47
L54I | -0.242 ± 0.25
L54R | -0.103 ± 0.12
L54C | -0.258 ± 0.36
L54F | -0.199 ± 0.12
L54V | -0.101 ± 0.12
L54P | 0.042 ± 0.17
L54Q | -0.175 ± 0.34
K50V | -0.638 ± 0.077

Variant | abundance fitness
K50G | -0.491 ± 0.074
K50I | -0.916 ± 0.19
K50S | -0.21 ± 0.088
K50Y | -1.01 ± 0.3
K50W | -0.836 ± 0.15
E28Q | -0.171 ± 0.29
E28V | -0.094 ± 0.11
E28M | -0.595 ± 0.3
E28Y | -0.113 ± 0.3
E28F | -0.17 ± 0.22
Q52W | -0.244 ± 0.1
Q52A | -0.006 ± 0.1
Q52T | -0.059 ± 0.12
Q52L | -0.005 ± 0.071
Q52C | -0.126 ± 0.15
Q52K | 0.018 ± 0.11
Q52P | -0.218 ± 0.098
Q52I | 0.045 ± 0.14
Q52F | -0.171 ± 0.13
A10N | -0.106 ± 0.28
A10W | -0.87 ± 0.27
A10S | -0.262 ± 0.15
A10G | -0.087 ± 0.12
A10F | -0.538 ± 0.22

Variant | abundance fitness
A10M | -0.206 ± 0.2
A10R | -0.904 ± 0.14
F47A | -0.744 ± 0.072
F47E | -0.89 ± 0.1
F47M | -0.686 ± 0.091
F47C | -0.843 ± 0.087
F47G | -0.853 ± 0.068
F47S | -0.81 ± 0.071
F47W | -0.168 ± 0.058
G26P | -0.004 ± 0.18
G26N | -0.041 ± 0.46
G26T | 0.03 ± 0.17
G26F | -0.173 ± 0.21
G26C | -0.027 ± 0.13
G26E | 0.119 ± 0.13
R40L | 0.061 ± 0.062
R40F | 0.041 ± 0.088
R40I | -0.029 ± 0.12
R40Y | -0.087 ± 0.11
R40T | -0.011 ± 0.091
R40Q | -0.12 ± 0.12
R40W | -0.014 ± 0.089
R40E | 0.017 ± 0.089
L14D | -0.972 ± 0.2

Variant | abundance fitness
L14G | -0.919 ± 0.08
L14Y | -0.878 ± 0.24
L14S | -1.05 ± 0.14
L14W | -1.03 ± 0.13
E34S | -0.047 ± 0.19
E34M | -0.285 ± 0.29
E34C | 0.127 ± 0.27
E34D | -0.428 ± 0.23
E34R | -0.237 ± 0.2
E34N | -0.531 ± 0.3
V42N | -0.064 ± 0.18
V42M | 0.034 ± 0.094
V42T | 0.002 ± 0.12
V42Q | -0.124 ± 0.14
V42E | 0.004 ± 0.073
V42G | -0.056 ± 0.062
V42Y | -0.099 ± 0.19
V42L | 0.061 ± 0.082
P8M | 0.037 ± 0.17
P8A | 0.022 ± 0.12
P8Y | -0.572 ± 0.28
P8C | -0.023 ± 0.14
P8S | 0.05 ± 0.13
P8Q | -0.365 ± 0.17

Variant | abundance fitness
P24F | -0.916 ± 0.14
P24I | -0.21 ± 0.1
P24Y | -0.805 ± 0.15
P24Q | -0.741 ± 0.14
P24E | -0.978 ± 0.11
P24N | -0.96 ± 0.24
Q9G | -0.06 ± 0.085
Q9M | -0.041 ± 0.22
Q9L | -0.253 ± 0.092
Q9E | -0.432 ± 0.2
W46D | -0.447 ± 0.26
W46H | -0.53 ± 0.42
W46V | -1.02 ± 0.13
W46K | -0.983 ± 0.43
W46F | -0.405 ± 0.29
W46G | -0.707 ± 0.11
W46N | -0.891 ± 0.23
F6N | -0.267 ± 0.19
F6W | -0.025 ± 0.098
F6E | -0.191 ± 0.11
F6Y | -0.187 ± 0.14
F6H | -0.272 ± 0.15
F6T | -0.134 ± 0.11
F6P | 0.039 ± 0.17

Variant | abundance fitness
F18V | -0.713 ± 0.081
F18N | -1.06 ± 0.26
F18P | -1.07 ± 0.32
F18Y | 0.107 ± 0.15
F18E | -0.892 ± 0.11
F18C | -0.522 ± 0.11
N49S | -0.061 ± 0.096
N49I | -0.226 ± 0.27
N49Y | -0.218 ± 0.14
N49L | -0.292 ± 0.1
N49R | -0.157 ± 0.084
N49Q | 0.03 ± 0.24
A53I | -0.11 ± 0.14
A53L | -0.086 ± 0.098
N15F | -0.543 ± 0.33
N15P | -0.378 ± 0.23
N15L | -0.15 ± 0.093
N15K | -0.13 ± 0.14
A33M | -0.477 ± 0.27
A33V | -0.259 ± 0.12
A33D | -0.669 ± 0.28
A33C | -0.199 ± 0.21
V43G | -0.943 ± 0.091

Source: the Human Domainome abundance scans (Beltran et al. 2025)
